Assay results reported in the supplement of paper PMC9170038.

System: K4 kissing-loop RNA reporter
Assay: apparent KD of K4 kissing-loop reporter; higher = weaker reporter binding
Conditions: Eterna round: R107
Procedure: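 RNA-MaP round R107: designed RNA switches with theophylline, tryptophan, arginine or FMN aptamers are transcribed on-chip within common flanks. They are titrated with a labelled K4 kissing-loop RNA reporter in RNA-MaP buffer (100 mM Tris pH 7.5, 80 mM KCl, 4 mM MgCl2), without ligand or with the indicated ligand. Median apparent KD per design.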

[1] = input ligand: theophylline 20 uM
[2] = input ligand: tryptophan 2.4 mM
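Also: bound reporter read as fluorescence of individual clusters on recovered sequencing chips by microscopy, with normalized cluster intensities fitted with a binding model.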

| Sequence | apparent KD of K4 kissing-loop reporter (input ligand: FMN 200 uM) [nM] | apparent KD of K4 kissing-loop reporter (input ligand: arginine 13.2 mM) [nM] | apparent KD of K4 kissing-loop reporter (input ligand: none) [nM] | apparent KD of K4 kissing-loop reporter [1] [nM] | apparent KD of K4 kissing-loop reporter [2] [nM] |
| --- | --- | --- | --- | --- | --- |
| GCCGUACGCACGGAUACCAGCACUCGGUGAGUGAUGUUCACGGUGUGGUAUUCAUCGGGCUGCCCUUGGCAGCCGUGCGUACGGC | 153 | 93.6 | 101 | 129 | 107 |
| GCCGUACGCACGGAUACCAGCACUCGUUGAGUGAUGUUCACGGUGUGGUAUUCAACGGGCUGCCCUUGGCAGCCGUGCGUACGGC | 135 | 91.2 | 134 | 139 | 144 |
| GCCGUACGCAUGGAUACCAGCGCUCGUCACCUAGCAGUGAUGUUGCUAAUGCCACGAGGACGCCCUUGGCAGCCAUGCGUACGGC | 116 | 101 | 102 | 83.3 | 107 |
| GCCGUACGCAUGGAUACCAGCUACUAGAGUGAUGUUCUAUGGCCCUGCCAAUGGAGCUGUAGCCCUUGGCAGCCAUGCGUACGGC | 130 | 125 | 105 | 122 | 126 |
| GCCGUACGCAUGGAUACCAGCUUGUCCGAGUGAUGUUCGGGUCUGAAUGCCGGUAAUAAGAGCCCUUGGCAGCCAUGCGUACGGC | 137 | 104 | 124 | 117 | 123 |
| GCCGUACGCAUGGAUACCAGUCAAGAUCAGUGAUGUUGAUCUUUUAUAGAGCCUUCAUUAGACCCUUGGCAGCCAUGCGUACGGC | 429 | 237 | 391 | 373 | 250 |
| GCCGUAGAUCGAAGGAGCGUGCAAGAAUCGUAGUGAUGUUACGGAGAGUGUCACGCCGUCGCACAGGUAGGUCGCGAUCUACGGC | 71 | 76.4 | 84.1 | 69.2 | 66.8 |
| GCCGUAGAUGGAAGGAGCGUGAAUGGCCUCUAUCCAAAGUGAUGUUUUGUUGAAGACUGUUCACAGGUAGGUCGCCAUCUACGGC | 165 | 125 | 135 | 135 | 140 |
| GCCGUAGAUGGAAGGAGCGUGUCAAAGUGAUGUUUUGAUUAACUCCCUUAGGGAAAGAUGGCACAGGUAGGUCGCCAUCUACGGC | 104 | 74.2 | 102 | 131 | 90.4 |
| GCCGUAGAUUGAAGGAGCGCCUUCUUACCAAGAGUGAUGUUCUUAGGUACCAUGUUCAGUAGGCAGGUAGGUCGCAAUCUACGGC | 499 | 441 | 484 | 647 | 489 |
| GCCGUAGAUUGAAGGAGCGUGGAACUAUGGCUUGAACAGUGAUGUUGUUUAUCUAGGUAGCCACAGGUAGGUCGCAAUCUACGGC | 266 | 201 | 234 | 182 | 178 |
| GCCUACGAUGCAGGAUAUAGCUCGCGAGUGAUGUUCGCAGCUGUAUGGUAGUAAACUUCCACGUGUCUAGAAGGGCAUCGUAGGC | 111 | 79.7 | 91.6 | 80 | 90.7 |
| GCCUAGCAGGGAAGGAGCGCCAUAUAAUUAAAAGGUAAUUAAUGAGUGAUGUUCAAAUAAUGGCAGGUAGGUCGCCCUGCUAGGC [KL-SSArg B10] | 316 | 277 | 283 | 354 | 283 |
| GCGAACAUUCGCAGUGAUGUUGCGACGGAAGGAGCGCGUGAAAACGCAGGUAGGUCGCCGACAUACUUAAUUUUACAGUGUUCGC [Arginine A K4 29] | 268 | 191 | 294 | 247 | 194 |
| GCGCGCGUUUUAGAUACCAGCCAGUGAUGUUGGCGAGGAUUCUGGAGCGUAGUGUCAAAUGGCCCUUGGCAGCUAACACGCGGCU [Zabea] | 117 | 108 | 119 | 134 | 123 |
| GCGCGGGAGUGAUGUUCCAAGUGGUGUUAACGAGGACCGGUACGGCCGCCACUCGAUACGGCCGGGCCGUAGGAUAAACUGGCGC [Same State - Tryptophan A (Freestyle 14)] | 405 | 376 | 441 | 318 | 408 |
| GCGCGGGAGUGAUGUUCCAAGUGGUGUUAACGAGGACCGGUACGGCCGCCACUCGUUACGGCCGGGCCGUAGGAUACACUGGCGC [Same State - Tryptophan A (Freestyle 16)] | 168 | 242 | 274 | 471 | 415 |
| GCGCGUCAUGUCAGCGGUGACACUGUCGAUACCAGCGCCGCAAGGCGCCCUUGGCAGCGACGCGCUGGAGUGAUGUUCCAGCGUG [#2 Exclusion - Theophylline A Attempt #14 (HarryS)] | 154 | 148 | 164 | 143 | 169 |
| GCGCGUCAUGUCAGCGGUGCCUAUGUCGAUACCAGCGCCGCAAGGCGCCCUUGGCAGCGACGCGCUGGAGUGAUGUUCCAGCGUG [#2 Exclusion - Theophylline A Attempt #11 (HarryS)] | 148 | 127 | 153 | 138 | 132 |
| GCGUAUGAUGCUCAAAGAGUAUCUCCCGAUACCAGUAUGGAAACAUACCCUUGGCAGCGGGUAACUGCCCAGUGAUGUUGGACGC [Theophylline A K4 9] | 430 | 253 | 351 | 394 | 326 |
| GCUACCUAUGCAGGAUAUGGUAUUACGAGUGAUGUUCGAGGCGAAUAGAGUGAUGUUCUAUUUCCACCAGAAGGGCAUAGGUAGC | 143 | 97.1 | 125 | 136 | 124 |
| GCUAUGGUAGGAAGGAGCGCGGACGAUAUUUAUCGAGUGAUGUUCGAUUAAUUAAUUUUAACGCAGGUAGGUCGCCUACUAUAGC [Arginine B K4 28] | 135 | 82.2 | 105 | 88.2 | 106 |
| GGAACUACGACGGCCGCCACUCUGUAUCCCAACGUUAAGGUCCUAACUGCAAGUGAUGUUUGUGCGAGGACCGGGUCUCCCUUGC [theeternabot_exclusion_KL_Trp_B_30] | 258 | 213 | 272 | 218 | 217 |

| Sequence | apparent KD of K4 kissing-loop reporter (input ligand: FMN 200 uM) [nM] | apparent KD of K4 kissing-loop reporter (input ligand: arginine 13.2 mM) [nM] | apparent KD of K4 kissing-loop reporter (input ligand: none) [nM] | apparent KD of K4 kissing-loop reporter [1] [nM] | apparent KD of K4 kissing-loop reporter [2] [nM] |
| --- | --- | --- | --- | --- | --- |
| GGACGACAGUCGGCCGCCACUCACAGCAGCCAGUGAUGUUGGAUUGUAGCGGAGUGAUGUUUCGCGAGGACCGGGACUGCAGUCC [Same State Tryptophan B GF 14] | 190 | 171 | 227 | 226 | 199 |
| GGACUCAAAUGUAGUGAUGUUACAAGCGAUACCAGUAUCUAACAUUACCCUUGGCAGCGCGCCCAGCUCAGCAAAUUAGAUAGCG [theeternabot_sameState_KL_Theo_A_43] | 149 | 204 | 178 | 268 | 114 |
| GGAGGGAUCUCGGCCGCCACUCAUAAGAAAUGGGCCUCAGGGAUAUAGUGAUGUUAUGUAAAGAAGAGGACCGGGAGAAAGAAGG [ExTryptoB.Dc] | 263 | 245 | 248 | 348 | 175 |
| GGAGUUACCUGGGAUACCAGUCGGAGUCUCAGAGCACAGAGUGAUGUUCUGGGAUGUUUCGGCCCUUGGCAGCUCUGGGACUCCA [#2 Exclusion - Theophylline B Attempt #14 (HarryS)] | 386 | 359 | 403 | 265 | 351 |
| GGAUAGGACAAAGGAUAUGGGCUAGGCAAGAAUAACUUGUCUAGCAAAUCCAUGAGGAGUGAUGUUCCAGAAGGUUGUCCUAUCG [FmnBX 1 A11+U75] | 624 | 116 | 122 | 127 | 107 |
| GGAUAGGACAGAGGAUAUCCUAAAGAGGCAAGAAUAACUUGUCUCAAAUGGAUGACCAGUGAUGUUGGAGAAGGCUGUCCUAUCG [FmnBX 6 - #SwitchBubble #StaticStem] | 406 | 194 | 207 | 147 | 178 |
| GGAUAGGACAGAGGAUAUGGUAGUGAUGUUACCAAACUGGUUACUCUUGUCAGAAAACUGGCAUUUCCAGAAGGCUGUCCUAUCG [KL-XFMN-B11] | 599 | 75.1 | 92.2 | 84.9 | 104 |
| GGAUAGGACUGAGGAUAUGGUAGUGAUGUUACCAAACUGGUUAAACAUGUCAGAAAACUGGCAUGACCAGAAGGCGGUCCUAUCG [FmnBX 27 U10+G76] | 104 | 65.5 | 72.5 | 55.3 | 57.2 |
| GGAUAGGAUAGAGGAUAUGGUUUAUGCAGGAAUAACUUAUUGUGUAAAUCCAUAGGGAGUGAUGUUCCAGAAGGCUGUCCUAUCG [MatMod 14 - Jieux - Exclusion - FMN B] | 379 | 218 | 230 | 249 | 183 |
| GGAUCCACCAGUGAUGUUGGAGAAAACUCCAAGGAUAUGACGAAAGUCAGAAGGUGGUAGACUGGACAAAGUCCGGUCGGAUCCA [FmnA 23 #SwitchBubble #K4Early] | 719 | 113 | 126 | 68.1 | 160 |
| GGAUCCACCAGUGAUGUUGGAGAAAACUCGAAGGAUAUGACGAAAGUCAGAAGGUUGUAGACUGGACAAAGUCCGGUCGGAUCCA [FmnA 23 G30+U56] | 843 | 466 | 549 | 590 | 421 |
| GGAUCCACCAGUGAUGUUGGAGAAAACUCUAAGGAUAUGACGAAAGUCAGAAGGUGGUAGACUGGACAAAGUCCGGUCGGAUCCA [FmnA 23 U30] | 1210 | 177 | 397 | 262 | 347 |
| GGAUUGCCAGUGAUGUUGGCAUAAACUGAAGGAGCGCGUGAAAACGCAGGUAGGUCGCAGAACCUUGCCAACUGAUCGAAAGAUC [Ex Arginine A K4 29] | 123 | 138 | 121 | 122 | 106 |
| GGCACUUUUGCUUGGAACCGUCAAGCUCUAUAGGAUAUGCCGAAAGGCAGAAGGAUGGACCUACAGAGUGAUGUUCUGCGUGCCU | 393 | 140 | 583 | 134 | 218 |
| GGCAUAUAAAAUUGCCUAGAGAGAAAGGAUACCAGCACCCGGCGGUGCCCUUGGCAGCCUAGCCCAGUGAUGUUGGGUCCUCUAA [Esinvege] | 237 | 130 | 189 | 235 | 223 |
| GGCCGAAGAGAAGGAUAUGGUUUCACGCGUCGUUAGUGAUGUUAAUGCGCAUGCCUUAGUAUAGAGCCAGAAGGUCUGGUCAGAA [theeternabot_sameState_KL_FMN_B_34] | 170 | 199 | 219 | 210 | 213 |
| GGCCGGAAGGCGGCCGCCACUCAGUGAUGUUGUGUGAAAGAAAAGAAAAGAAGAAAGAAAAGAAAGAGGACCGGGCCAAACGGCC | 257 | 224 | 504 | 643 | 580 |
| GGGAGCAAAGCUCCCGGAUGCUAUAGUCAGGAGGAUAUCUGGAAACAGAGAAGGCCUAAGCCAGUGAUGUUGGCUAUAAGCAUCC | 475 | 406 | 757 | 629 | 589 |
| GGGAGUAGUGCGGCCGCCACUGAGAAAGAAGAAGAAUAUAGUGAUGUUAUAUAGGAAGGGAAGAAUAGGACCGGGCAUUAGAUUU [SSTRyptB.Z] | 336 | 250 | 340 | 275 | 233 |
| GGGAGUAGUGCGGCCGCCACUGUGAAAGUAGAAGAAUAUAGUGAUGUUAUAUAGGAUUAAAAGAAUAGGACCGGGCAUUAGAUUU [SSTRyptB.W] | 176 | 207 | 219 | 186 | 209 |
| GGGUUUGACGGAGGAUAUGCACUGAGGAGGAGAAUAUAGUGAUGUUAUAUAAGAGGAAGGAGAAGAGUAGAAGGCCGUUGGGUUU [SSFMNB.L] | 124 | 131 | 139 | 165 | 104 |
| GGUAGCAUGGCGGCCGCCACUAAGAGAGUGAUGUUCUCUUAGUUUUUUGAUGUGUUAUCAAUUCUUAGGACCGGGCCAUGCUACC | 111 | 92.4 | 98.2 | 99.8 | 109 |
